In patent publication US20030013169, “Transcription factor E2F DNA-binding domain inhibitor peptides and their use” (published 2003):

Molecular target: E2F1/DP1 heterodimer (Homo sapiens, UniProt Q01094;Q14186 Q01094:64-301,Q14186:85-249)
Test: EMSA; binding inhibited by peptides SEQ 2, 4, 5 with IC50 50-100 uM; about 100-fold lower for MAP-branched SEQ 2; room temperature
Details: tags: His-E2F1 (pET28b); GST-DP1; label: 32P fill-in
Procedure: Purified E2F1 N1-His (64-301) and DP1 N2-GST (84-249) were incubated at 10 μg/ml in a buffer containing 10 mM HEPES, […], 1 mM EDTA, […], 33 mg/ml BSA and 0.1 μg of sonicated salmon sperm for 10 minutes on ice. ³²P-labelled probe was added and the reaction mixture was incubated at room temperature for 20 minutes. Probes were labelled by filling-in 5′ overhanging ends of 4-7 bases. Samples were run on 4% non denaturing polyacrylamide gel in 0.5% TBE at 4° C. Gels were exposed to X-ray films. Nuclear extract (3 μg) was incubated in 17 μl buffer containing 0.3 M NaCl, 0.4 M Tris pH 7.9, 100 mM EDTA, 0.4 M DTT, 13% glycerol, 1 μg of sonicated salmon sperm on ice. The samples were then incubated for 10 minutes at 30° C. and cooled on ice. ³²P-labelled probe was added, the reaction mixtures were incubated for another 10 minutes at 30° C. and then cooled on ice.
The inhibitory potential of the peptides on E2F function was analysed in band shift assays with recombinant E2F1 and DP1. […] The IC₅₀ concentrations for the 3 peptides were in the range of 50-100 μM. Inhibition to various extends was also observed using recombinant fragments of E2F2, E2F3, E2F4, E2F5, respectively. Approximately 100-fold lower IC50 values were found with a branched molecule consisting of 4 copies of SEQ ID NO:2 linked by MAP (multiple antigen peptide).

Sequence of E2F1/DP1 heterodimer (Q01094 64-301, chain 1 of 2): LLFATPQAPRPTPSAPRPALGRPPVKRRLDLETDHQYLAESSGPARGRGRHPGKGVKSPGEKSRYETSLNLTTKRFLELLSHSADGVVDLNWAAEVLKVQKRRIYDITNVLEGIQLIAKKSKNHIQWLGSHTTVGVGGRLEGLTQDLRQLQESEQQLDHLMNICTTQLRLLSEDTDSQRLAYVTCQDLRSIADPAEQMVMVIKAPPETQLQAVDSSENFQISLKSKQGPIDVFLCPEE
Sequence of E2F1/DP1 heterodimer (Q14186 85-249, chain 2 of 2): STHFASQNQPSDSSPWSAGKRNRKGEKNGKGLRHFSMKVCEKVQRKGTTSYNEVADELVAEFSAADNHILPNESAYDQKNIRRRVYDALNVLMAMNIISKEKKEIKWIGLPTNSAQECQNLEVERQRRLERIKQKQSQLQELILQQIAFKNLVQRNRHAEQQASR

B1: B-myb E2F probe (dsDNA)
DNA 1: CGACGCGCTTGGCGGGAGATAGAAAAGTGC
DNA 2: GCACTTTTCTATCTCCCGCCAAGCGCGTCG
- binding result: binds
